In this assay the target is SD93 NA K385N/N387K mutant, recombinant NA head domain (residues 82-469) fused to a VASP tetramerization domain (not stated | influenza A virus A/Shandong/9/1993 (H3N2)). Description: SEC; HiLoad 16/100 Superdex 200 prep grade, 20 mM Tris-HCl pH 8.0, 100 mM NaCl, 10 mM CaCl2; NA head domain fused to a VASP tetramerization domain. (In general: In gel filtration, larger molecules generally elute earlier.)

By stoichiometry N is commonly meant the number of molecules, sites or subunits per partner or assembly.

Regarding “SD93 NA K385N/N387K mutant, recombinant NA head domain (residues 82-469) fused to a VASP tetramerization domain (domain or fragment)”, the stoichiometry N stood at 4.

Source of the values: paper PMC9616408.
